Patent US20240003906A1, “Biomarker of Fibrosis” (Nordic Bioscience A/S, priority 2020, published 2024)
Where no end group is shown, it is not given here.

B1: monoclonal antibody NBH-242 (antibody, mouse IgG2a, kappa, V domains shown)
VH: QVQLQQSGAELVRPGVSVKISCKGSGHTFTDHGMHWVKQSQAKSLEWIGVISTYYGDATYNQKFKGKATMTVDKSSSTAYMELARLTSEDSAIYYCARSMGGNYVGTGFAYWGQGTLVTVSA
VL: DIVMTQAAPSVPVTPGESVSISCRSSKSLLHSNGNTYLYWFLQRPGQSPQLLIYRMSNLASGVPDRFSGSGSGTAFTLRISRVEAEDVGVYYCMQHLEFPLTFGAGTKLELKR
notes: In the sandwich ELISA the antibody was biotinylated (capture) and HRP-labelled (detection); also called monoclonal NBH-242 antibody; capture antibody
B2: NBH-242: neo-epitope specific antibody directed towards the C-terminal neo-epitope in the C-terminal telopeptide of type III collagen (CT-III), …-COOH (antibody)
heavy: QVQLQQSGAELVRPGVSVKISCKGSGHTFTDHGMHWVKQSQAKSLEWIGVISTYYGDATYNQKFKGKATMTVDKSSSTAYMELARLTSEDSAIYYCARSMGGNYVGTGFAYWGQGTLVTVSAAKTTAPSVYPLAPVCGDTTGSSVTLGCLVKGYFPEPVTLTWNSGSLSSGVHTFPAVLQSDLYTLSSSVTVTSSTWPSQSITCNVAHPASSTKVDKKIEPRGPTIKPCPPCKCPAPNLLGGPSVFIFPPKIKDVLMISLSPIVTCVVVDVSEDDPDVQISWFVNNVEVHTAQTQTHREDYNSTLRVVSALPIQHQDWMSGKEFKCKVNNKDLPAPIERTISKPKGSVRAPQVYVLPPPEEEMTKKQVTLTCMVTDFMPEDIYVEWTNNGKTELNYKNTEPVLDSDGSYFMYSKLRVEKKNWVERNSYSCSVVHEGLHNHHTTKSFSRTPGK
light: DIVMTQAAPSVPVTPGESVSISCRSSKSLLHSNGNTYLYWFLQRPGQSPQLLIYRMSNLASGVPDRFSGSGSGTAFTLRISRVEAEDVGVYYCMQHLEFPLTFGAGTKLELKRADAAPTVSIFPPSSEQLTSGGASVVCFLNNFYPKDINVKWKIDGSERQNGVLNSWTDQDSKDSTYSMSSTLTLTKDEYERHNSYTCEATHKTSTSPIVKSFNRNE

Legend:
[1] = biological target: T1, Rat dimeric peptide CKSGGFSPYYG x CKSGGFSPYYG (rat, also: homodimer cross-linked by disulphide N-terminal to antibody binding site, disulfide at 1, other end not in the chain); test: direct sandwich ELISA, NBH-242 as capture and detection antibody
T1 construct: also called dimeric rat peptide; rat selection peptide
T1 peptide: CKSGGFSPYYG
Method: (§1) Unbound primary antibody and sample was discarded, and the wells were washed with washing buffer. Subsequently, 100 μL chemiluminescence substrate was added to the wells, plates were incubated for 3 minutes at 20° C. in the dark rotating 300 rpm. Finally, the luminescence emitted was quantified with an ELISA reader (VersaMAX; Molecular Devices, Wokingham Berkshire, UK) set to measure the luminescence at 450 nm and 650 nm. […] Unknown sample measurements were interpolated with the standard curve to obtain the concentration (ng/mL) of the CTX-III fragment.
(§2) By plotting the calculated percentage recovery, the specificity of the antibodies in the direct sandwich ELISA towards the dimeric peptides was tested.

[2] = biological target: T2, Dimeric elongated peptide CKAGGFAPYYGD x CKAGGFAPYYGD (also: homodimer linked by Cys1 disulphide, disulfide at 1, other end not in the chain); test: as above
T2 peptide: CKAGGFAPYYGD
Method: as §1, §2

[3] = biological target: T3, Dimeric selection peptide CKAGGFAPYYG x CKAGGFAPYYG (human, also: homodimer linked by Cys1 disulphide, disulfide at 1, other end not in the chain); test: as above
T3 construct: Synthetic dimer of two identical strands; standard of the sandwich ELISA; also called dimeric human selection peptide
T3 peptide: CKAGGFAPYYG
Method: as §1, §2

[4] = biological target: T4, Dimeric truncated peptide CKAGGFAPYY x CKAGGFAPYY (also: homodimer linked by Cys1 disulphide, disulfide at 1, other end not in the chain); test: as above
T4 peptide: CKAGGFAPYY
Method: as §1, §2

[5] = biological target: T5, Selection peptide KAGGFAPYYG (human); test: indirect competitive ELISA, selection peptide competing with coated biotin-KAGGFAPYYG
T5 construct: Synthetic monomeric peptide (Genscript); also called human selection peptide
T5 peptide: KAGGFAPYYG

[6] = biological target: T6, Elongated peptide KAGGFAPYYGD; test: indirect competitive ELISA (final inhibition)
T6 peptide: KAGGFAPYYGD

[7] = biological target: T7, Truncated peptide KAGGFAPYY; test: indirect competitive ELISA (final inhibition)
T7 peptide: KAGGFAPYY

[8] = biological target: T8, dimeric elongated peptide (CKAGGFAPYYGD×CKAGGFAPYYGD (SEQ ID NO: 17)) (Homo sapiens, UniProt P02461); test: Direct sandwich ELISA specificity towards dimeric peptides; assay type: binding; details: NBH-242 as capture and detection antibody, FIG. 3
T8 construct: purchased Genscript, Piscataway, NJ, USA; host or cells: synthetic peptide
Method: (§3) 96-well plates precoated with streptavidin (Roche Diagnostic's, Hvidovre, Denmark, cat. No. 11940279) were coated with 100 μL of the biotinylated antibody targeting the CTX-III fragment diluted 1+100 in assay buffer (50 mM PBS, 1% BSA, 1% Tween-20, 150 mM NaCl, pH 7.4) for 30 minutes at room temperature rotating at 300 rounds-per-minute (rpm). Unbound biotinylated capture antibody was discarded, and the wells were washed with washing buffer (25 mM TRIZMA, 50 mM NaCl, 0.036% Bronidox L5, 0.1% Tween 20) using a standardized ELISA plate washing machine (BioTek® Instruments, Microplate washer, ELx405 Select CW, Winooski, USA). All samples and the detection antibody were diluted in incubation buffer (50 mM PBS, 1% BSA, 1% Tween-20, 150 mM NaCl, 5% Liquid II, pH 7.4), with the detection antibody being diluted 1+100. 20 μL of sample material and controls were incubated with 100 μL HRP labelled detection antibody targeting the CTX-III fragment, at 4° C. for 20 hours and agitated at 300 rpm. […] Finally, the luminescence emitted was quantified with an ELISA reader (VersaMAX; Molecular Devices, Wokingham Berkshire, UK) set to measure the luminescence at 450 nm and 650 nm. […]
(§4) The lower limit of detection (LLOD) was determined from 21 zero samples (i.e. incubation buffer) and calculated as the mean+3× standard deviation, whereas the upper limit of detection (ULOD) was determined from 10 measurements of the dimeric selection peptide calculated as the mean+3× standard deviation. The inter- and intra-assay variation was determined by 10 independent runs of five quality control (QC) samples with minimum three of these being healthy human plasma EDTA samples (Valley Biomedical, Winchester, VA, USA), with each run consisting of double determinations of the samples. […] Assay linearity was determined by calculating the percentage recovery (100%±20%) of a 1:6-fold dilution of healthy human plasma EDTA samples with a significant concentration, using the undiluted sample as reference. […] Subsequently, the percentage recovery between the control sample and the low or high interferent samples were calculated.

[9] = biological target: T9, Rat dimeric peptide (CKSGGFSPYYG×CKSGGFSPYYG) (Rattus norvegicus, UniProt P13941); test: as above; assay type: binding; details: NBH-242 as capture and detection antibody, FIG. 3
T9 construct: purchased Genscript, Piscataway, NJ, USA; host or cells: synthetic peptide
Method: as §3, §4

[10] = biological target: T10, dimeric truncated peptide (CKAGGFAPYY×CKAGGFAPYY (SEQ ID NO: 18)) (Homo sapiens, UniProt P02461); test: as above; assay type: binding; details: NBH-242 as capture and detection antibody, FIG. 3
T10 construct: purchased Genscript, Piscataway, NJ, USA; host or cells: synthetic peptide
Method: as §3, §4

Molecule	binding result [1]	binding result [2]	binding result [3]	binding result [4]	binding result [5]	binding result [6]	binding result [7]	reactivity towards the dimeric elongated peptide [8]	reactivity towards the dimeric rat peptide [9]	reactivity towards the dimeric truncated peptide [10]
B1	no binding	no binding	binds	no binding	binds	no binding	no binding			
B2								no reactivity	no reactivity	no reactivity
